Assay results reported in patent publication US20150276749A1 (KONICA MINOLTA, published 2015).

Tests used:
[1] = biological target: soluble-type human DSG3-mouse IgG2aFc fusion protein (human; mouse) (UniProt P32926); experiment: sandwich ELISA, luminescence over blank; immobilized MAB1720, detection DF151; antigen 5000 pg/mL
[2] = biological target: soluble-type human DSG3-mouse IgG2aFc fusion protein (human; mouse) (UniProt P32926); experiment: sandwich ELISA, antigen in PBS(-); immobilized MAB1720, detection biotinylated DF366m
[3] = biological target: soluble-type human DSG3-mouse IgG2aFc fusion protein (human; mouse) (UniProt P32926); experiment: sandwich ELISA, luminescence over blank; immobilized MAB1720, detection DF151; antigen 40 pg/mL
[4] = biological target: soluble-type human DSG3-mouse IgG2aFc fusion protein (human; mouse) (UniProt P32926); experiment: sandwich ELISA, luminescence over blank; immobilized MAB1720, detection DF151; antigen 10 pg/mL
[5] = biological target: soluble-type human DSG3-mouse IgG2aFc fusion protein (human; mouse) (UniProt P32926); experiment: sandwich ELISA, antigen in PBS(-); immobilized MAB1720, detection biotinylated D219-3
[6] = biological target: soluble-type human DSG3-mouse IgG2aFc fusion protein (human; mouse) (UniProt P32926); experiment: SPFS sandwich; immobilized MAB1720, detection DF151; antigen 1,000 pg/mL (µg/mL in the source)
[7] = biological target: soluble-type human DSG3-mouse IgG2aFc fusion protein (human; mouse) (UniProt P32926); experiment: sandwich ELISA, luminescence over blank; immobilized MAB1720, detection DF151; antigen 25000 pg/mL
[8] = biological target: soluble-type human DSG3-mouse IgG2aFc fusion protein (human; mouse) (UniProt P32926); experiment: sandwich ELISA, antigen added to human serum; immobilized MAB1720, detection biotinylated DF151
[9] = biological target: soluble-type human DSG3-mouse IgG2aFc fusion protein (human; mouse) (UniProt P32926); experiment: sandwich ELISA, antigen in PBS(-); immobilized MAB1720, detection biotinylated MAB1720
[10] = biological target: soluble-type human DSG3-mouse IgG2aFc fusion protein (human; mouse) (UniProt P32926); experiment: sandwich ELISA, luminescence over blank; immobilized MAB1720, detection DF151; antigen 1 pg/mL
[11] = biological target: soluble-type human DSG3-mouse IgG2aFc fusion protein (human; mouse) (UniProt P32926); experiment: sandwich ELISA, luminescence over blank; immobilized MAB1720, detection DF151; antigen 1000 pg/mL
[12] = biological target: soluble-type human DSG3-mouse IgG2aFc fusion protein (human; mouse) (UniProt P32926); experiment: sandwich ELISA, luminescence over blank; immobilized MAB1720, detection DF151; antigen 200 pg/mL
[13] = biological target: soluble-type human DSG3-mouse IgG2aFc fusion protein (human; mouse) (UniProt P32926); experiment: sandwich ELISA, antigen in PBS(-); immobilized MAB1720, detection biotinylated DF151
[14] = biological target: T1, soluble-type human DSG3-mouse IgG2aFc fusion protein (human; mouse, UniProt P32926 50-616); experiment: sandwich ELISA, luminescence over blank; immobilized DF366m, detection MAB1720; antigen 5000 pg/mL
T1 construct: also called human desmoglein 3; desmoglein 3 standard; not shown: mouse IgG2a Fc, printed 'mouse IgG2aFc' and 'mouse IgG2 constant region'
T1 sequence: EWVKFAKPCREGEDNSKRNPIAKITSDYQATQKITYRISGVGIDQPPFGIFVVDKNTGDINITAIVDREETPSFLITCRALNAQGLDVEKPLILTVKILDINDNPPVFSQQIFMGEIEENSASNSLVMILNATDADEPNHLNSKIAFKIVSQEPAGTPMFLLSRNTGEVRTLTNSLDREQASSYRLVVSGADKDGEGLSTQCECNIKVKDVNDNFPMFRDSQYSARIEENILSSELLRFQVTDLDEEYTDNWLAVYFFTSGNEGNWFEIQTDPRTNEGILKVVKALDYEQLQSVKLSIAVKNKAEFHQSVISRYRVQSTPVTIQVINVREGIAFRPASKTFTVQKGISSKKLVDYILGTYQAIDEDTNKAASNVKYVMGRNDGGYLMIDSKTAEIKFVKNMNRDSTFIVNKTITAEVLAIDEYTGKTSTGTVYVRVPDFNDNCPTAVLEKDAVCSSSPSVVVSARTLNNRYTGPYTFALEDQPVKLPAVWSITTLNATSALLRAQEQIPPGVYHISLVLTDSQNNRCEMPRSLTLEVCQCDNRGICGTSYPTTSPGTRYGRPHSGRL
Protocol: (§1) Subsequently, the antigen solutions having the above-described concentrations were each added to the plate in an amount of 50 μL/well, and the plate was incubated at room temperature for 1 hour. Then, the antigen solution was removed, and the plate was washed with 0.05% Tween 20-PBS three times. Thereafter, the 1-μg/mL biotinylated antibody solution was added in an amount of 50 μL/well, and the plate was incubated at room temperature for 1 hour.
(§2) Then, after removing the streptavidin-HRP solution and washing the plate with 0.05% Tween 20-PBS three times, a substrate solution (SuperSignal ELISA Femto Maximum Sensitivity Substrate (registered trademark); Pierce Biotechnology, Inc.) was added in an amount of 100 μL/well. One minute thereafter, the luminescence intensity was measured using a luminometer, Fluoroskan Ascent FL (trade name, Thermo Electron Corporation).
(§3) The numerical values shown in Table 1 represent the minimum values of the antigen solution concentration having an S/N ratio of higher than 2 (hereinafter, referred to as “detection limit concentration”) and the unit of the numerical values is pg/mL. The S/N ratio was determined by dividing the luminescence intensity at the respective antigen solution concentrations ([…]) by the luminescence intensity of an antigen-free blank antigen solution (0 μg/mL).

[15] = biological target: T1, soluble-type human DSG3-mouse IgG2aFc …; experiment: SPFS sandwich; immobilized DF366m, detection DF151; antigen 1,000 pg/mL (µg/mL in the source)
Protocol: (§4) Once again, a Tris-buffered saline (TBS) containing 0.05% by mass of Tween 20 was fed and circulated in the flow path for 10 minutes to wash the flow path. Then, with the flow path being filled with PBS buffer (pH 7.4), the assay area was irradiated with laser light (640 nm, 40 μW) from the back side of the metal thin films, and the fluorescence intensity was measured using a photomultiplier tube (PMT) arranged above the assay area. The thus measured value was defined as “signal” (S) at a desmoglein 3 concentration of 100 μg/mL.
On another front, the fluorescence intensity was also measured by the same procedures as described above, except that a PBS solution containing no desmoglein 3 (0 μg/mL) was fed in place of the PBS solution containing 100 μg/mL of desmoglein 3. The thus measured value was defined as “noise” (N).
(§5) Further, the fluorescence intensity was measured by the same procedures as described above, except that the desmoglein 3 concentration of the fed PBS solution was changed to 10,000 μg/mL, 5,000 μg/mL, 1,000 μg/mL, 200 μg/mL, 50 μg/mL, 10 μg/mL, 3.16 μg/mL, 1 μg/mL, 0.316 μg/mL, 0.1 μg/mL and 0.031 μg/mL. The thus measured values were each defined as “signal” (S) at the respective concentrations.

[16] = biological target: T1, soluble-type human DSG3-mouse IgG2aFc …; experiment: sandwich ELISA, luminescence over blank; immobilized DF366m, detection MAB1720; antigen 1 pg/mL
Protocol: as §1, §2, §3

[17] = biological target: T1, soluble-type human DSG3-mouse IgG2aFc …; experiment: sandwich ELISA, luminescence over blank; immobilized DF366m, detection DF151; antigen 1000 pg/mL
Protocol: as §1, §2, §3

[18] = biological target: T1, soluble-type human DSG3-mouse IgG2aFc …; experiment: sandwich ELISA, luminescence over blank; immobilized DF366m, detection MAB1720; antigen 40 pg/mL
Protocol: as §1, §2, §3

[19] = biological target: T1, soluble-type human DSG3-mouse IgG2aFc …; experiment: sandwich ELISA, luminescence over blank; immobilized DF366m, detection MAB1720; antigen 1000 pg/mL
Protocol: as §1, §2, §3

[20] = biological target: T1, soluble-type human DSG3-mouse IgG2aFc …; experiment: sandwich ELISA, luminescence over blank; immobilized DF366m, detection DF151; antigen 1 pg/mL
Protocol: as §1, §2
(§6) The numerical values shown in Table 1 represent the minimum values of the antigen solution concentration having an S/N ratio of higher than 2 (hereinafter, referred to as “detection limit concentration”) and the unit of the numerical values is pg/mL. […]

[21] = biological target: T1, soluble-type human DSG3-mouse IgG2aFc …; experiment: sandwich ELISA, luminescence over blank; immobilized DF366m, detection DF151; antigen 5000 pg/mL
Protocol: as §1, §2, §3

[22] = biological target: T1, soluble-type human DSG3-mouse IgG2aFc …; experiment: sandwich ELISA, luminescence over blank; immobilized DF366m, detection DF151; antigen 10 pg/mL
Protocol: as §1, §2, §6

[23] = biological target: T1, soluble-type human DSG3-mouse IgG2aFc …; experiment: sandwich ELISA, luminescence over blank; immobilized DF366m, detection DF151; antigen 200 pg/mL
Protocol: as §1, §2, §3

[24] = biological target: T1, soluble-type human DSG3-mouse IgG2aFc …; experiment: SPFS sandwich; immobilized DF366 (so in the source), detection MAB1720; antigen 1,000 pg/mL (µg/mL in the source)
Protocol: as §4, §5
In addition, when the antibody combination was variously changed in the same manner as in Example 1, it was confirmed that plots similar to the one shown in FIG. 6 can be obtained.

[25] = biological target: T1, soluble-type human DSG3-mouse IgG2aFc …; experiment: sandwich ELISA, luminescence over blank; immobilized DF366m, detection MAB1720; antigen 10 pg/mL
Protocol: as §1, §2, §6

[26] = biological target: T1, soluble-type human DSG3-mouse IgG2aFc …; experiment: sandwich ELISA, luminescence over blank; immobilized DF366m, detection DF151; antigen 25000 pg/mL
Protocol: as §1, §2, §3

[27] = biological target: T1, soluble-type human DSG3-mouse IgG2aFc …; experiment: sandwich ELISA, luminescence over blank; immobilized DF366m, detection MAB1720; antigen 200 pg/mL
Protocol: as §1, §2, §3

[28] = biological target: T1, soluble-type human DSG3-mouse IgG2aFc …; experiment: sandwich ELISA, luminescence over blank; immobilized DF366m, detection MAB1720; antigen 25000 pg/mL
Protocol: as §1, §2, §3

[29] = biological target: T1, soluble-type human DSG3-mouse IgG2aFc …; experiment: sandwich ELISA, luminescence over blank; immobilized DF366m, detection DF151; antigen 40 pg/mL
Protocol: as §1, §2, §3

## MAB1720 antibody (R&D Systems, Inc., Catalog No.: MAB1720)
[1]
  S/N ratio: 11.4
[2]
  detection limit concentration (lowest antigen concentration with S/N > 2): 5000 pg/mL
[3]
  S/N ratio: 1
[4]
  S/N ratio: 1.1
[5]
  detection limit concentration (lowest antigen concentration with S/N > 2): 5000 pg/mL
[6]
  S/N ratio: 34.5
[7]
  S/N ratio: 53
[8]
  detection limit concentration: 1000 pg/mL
[9]
  detection limit concentration (lowest antigen concentration with S/N > 2): 5000 pg/mL
[10]
  S/N ratio: 0.9
[11]
  S/N ratio: 2.8
[12]
  S/N ratio: 1.3
[13]
  detection limit concentration (lowest antigen concentration with S/N > 2): 1000 pg/mL

B1: DF366m (DF366m[I] antibody) (antibody, mouse IgG2a, kappa, V domains shown)
VH: EVQLQQSGPELVKPGASVKISCKASGYTFTDYNMDWVKQSHGESLEWIGYIYPNNGGSGYNQKFKSKATLTVDKSSSTAYMELHSLTSEDSAVYYCARRDSYYGFDMAWFAYWGQGTLVTVSA
VL: DIQMTQSPASLSASVGETVTITCRPSENIYNNLAWYQQKQGKSPQLLVYVATNLAEGVPSRFSGSGSGTRFSLKINSLQPEDFGKYYCQHSYGTPWTFGGGTKLEIKR
notes: Complete antibody; Plain when immobilized; biotinylated (Biotin-AC5-Osu) when used as detection antibody; also called DF366m antibody
[14]
  S/N ratio: 16.6
[15]
  S/N ratio: 140
[16]
  S/N ratio: 0.9
[17]
  S/N ratio: 8.1
[18]
  S/N ratio: 0.9
[19]
  S/N ratio: 3.9
[20]
  S/N ratio: 1
[21]
  S/N ratio: 37.3
[22]
  S/N ratio: 1.1
[23]
  S/N ratio: 2.3
[24]
  S/N ratio: 92.2
[25]
  S/N ratio: 1
[26]
  S/N ratio: 186
[27]
  S/N ratio: 1.8
[28]
  S/N ratio: 80.4
[29]
  S/N ratio: 1.2
